Measured values published in the supplement of paper PMC11246515.
± gives the standard deviation of the averaged measurements.

Assay: total protein half-life in vivo (active degradation + dilution); higher = more stable protein
[1] = E. coli NCM3722 delta-clpP delta-lon delta-hslV, growth: N-lim chemostat, doubling time 6 h
[2] = E. coli NCM3722 delta-clpP, growth: N-lim chemostat, doubling time 6 h
[3] = E. coli NCM3722 delta-hslV, growth: N-lim chemostat, doubling time 6 h
[4] = E. coli NCM3722 delta-lon, growth: N-lim chemostat, doubling time 6 h
[5] = E. coli NCM3722 delta-smpB, growth: N-lim chemostat, doubling time 6 h
[6] = wild type E. coli NCM3722, growth: C-lim chemostat, doubling time 3 h
[7] = wild type E. coli NCM3722, growth: C-lim chemostat, doubling time 6 h
[8] = wild type E. coli NCM3722, growth: C-lim chemostat, doubling time 12 h
[9] = wild type E. coli NCM3722, growth: N-lim chemostat, doubling time 6 h
[10] = wild type E. coli NCM3722, growth: N-lim chemostat, doubling time 12 h
[11] = wild type E. coli NCM3722, growth: P-lim chemostat, doubling time 6 h
[12] = wild type E. coli NCM3722, growth: P-lim chemostat, doubling time 12 h

MRVSRSLTIKQMAMVAAVVLVFVFIFCTVLLFHLVQQNRYNTATQLESIARSVREPLSSAILKGDIPEAEAILASIKPAGVVSRADVVLPNQFQALRKSFIPERPVPVMVTRLFELPVQISLGVYSLERPANPQPIAYLVLQADSFRMYKFVMSTLSTLVTIYLLLSLILTVAISWCINRLILHPLRNIARELNAIPAKELVGHQLALPRLHQDDEIGMLVRSYNLNQQLLQRHYEEQNENAMRFPVSDLPNKALLMEMLEQVVARKQTTALMIITCETLRDTAGVLKEAQREILLLTLVEKLKSVLSPRMILAQISGYDFAVIANGVQEPWHAITLGQQVLTIMSERLPIERIQLRPHCSIGVAMFYGDLTAEQLYSRAISAAFTARHKGKNQIQFFDPQQMEAAQKRLTEESDILNALENHQFAIWLQPQVEMTSGKLVSAEVLLRIQQPDGSWDLPDGLIDRIECCGLMVTVGHWVLEESCRLLAAWQERGIMLPLSVNLSALQLMHPNMVADMLELLTRYRIQPGTLILEVTESRRIDDPHAAVAILRPLRNAGVRVALDDFGMGYAGLRQLQHMKSLPIDVLKIDKMFVEGLPGDSSMIAAIIMLAQSLNLQMIAEGVETEAQRDWLAKAGVGIAQGFLFARPLPIEIFEESYLEEK
total protein half-life in vivo [1]: 6.54 ± 0.19 h | total protein half-life in vivo [2]: 6.31 ± 0.11 h | total protein half-life in vivo [3]: 6.2 ± 0.23 h | total protein half-life in vivo [4]: 5.77 ± 0.32 h | total protein half-life in vivo [5]: 6.1 ± 0.082 h | total protein half-life in vivo [6]: 2.998 ± 0.0049 h | total protein half-life in vivo [7]: 5.7 ± 1.1 h | total protein half-life in vivo [8]: 13 ± 0.22 h | total protein half-life in vivo [9]: 6.054 ± 0.008 h | total protein half-life in vivo [10]: 12.3 ± 0.63 h | total protein half-life in vivo [11]: 6.161 ± 0.035 h | total protein half-life in vivo [12]: 12.5 ± 0.55 h

MRFSTQMMYQQNMRGITNSQAEWMKYGEQMSTGKRVVNPSDDPIAASQAVVLSQAQAQNSQYTLARTFATQKVSLEESVLSQVTTAIQNAQEKIVYASNGTLSDDDRASLATDIQGLRDQLLNLANTTDGNGRYIFAGYKTETAPFSEEKGKYVGGAESIKQQVDASRSMVIGHTGDKIFDSITSNAVAEPDGSASETNLFAMLDSAIAALKTPVADSEADKETAAAALDKTNRGLKNSLNNVLTVRAELGTQLNELESLDSLGSDRALGQTQQMSDLVDVDWNATISSYIMQQTALQASYKAFTDMQGLSLFQLSK
total protein half-life in vivo [1]: 2.65 ± 0.11 h | total protein half-life in vivo [2]: > 8 h | total protein half-life in vivo [6]: 0.265 ± 0.026 h | total protein half-life in vivo [7]: 0.393 ± 0.063 h | total protein half-life in vivo [8]: 0.399 ± 0.39 h

MTVPTYDKFIEPVLRYLATKPEGAAARDVHEAAADALGLDDSQRAKVITSGQLVYKNRAGWAHDRLKRAGLSQSLSRGKWCLTPAGFDWVASHPQPMTEQETNHLAFAFVNVKLKSRPDAVDLDPKADSPDHEELAKSSPDDRLDQALKELRDAVADEVLENLLQVSPSRFEVIVLDVLHRLGYGGHRDDLQRVGGTGDGGIDGVISLDKLGLEKVYVQAKRWQNTVGRPELQAFYGALAGQKAKRGVFITTSGFTSQARDFAQSVEGMVLVDGERLVHLMIENEVGVSSRLLKVPKLDMDYFE
total protein half-life in vivo [1]: 5.65 ± 1.1 h | total protein half-life in vivo [2]: 4.02 ± 0.13 h | total protein half-life in vivo [3]: 3.84 ± 0.13 h | total protein half-life in vivo [4]: 4.33 ± 0.27 h | total protein half-life in vivo [5]: 3.561 ± 0.012 h | total protein half-life in vivo [6]: 2.94 ± 0.055 h | total protein half-life in vivo [7]: 4.88 ± 0.19 h | total protein half-life in vivo [8]: 10.48 ± 0.072 h | total protein half-life in vivo [9]: 3.599 ± 0.011 h | total protein half-life in vivo [10]: 7.77 ± 3.8 h | total protein half-life in vivo [11]: 4.92 ± 0.1 h | total protein half-life in vivo [12]: 10.4 ± 0.31 h

MKIDLNADLGEGCASDAELLTLVSSANIACGFHAGDAQIMQACVREAIKNGVAIGAHPSFPDRENFGRSAMQLPPETVYAQTLYQIGALATIARAQGGVMRHVKPHGMLYNQAAKEAQLADAIARAVYACDPALILVGLAGSELIRAGKQYGLTTREEVFADRGYQADGSLVPRSQSGALIENEEQALAQTLEMVQHGRVKSITGEWATVAAQTVCLHGDGEHALAFARRLRSAFAEKGIVVAA
total protein half-life in vivo [1]: 5 ± 0.5 h | total protein half-life in vivo [3]: 3.66 h | total protein half-life in vivo [4]: 5.55 ± 2 h | total protein half-life in vivo [5]: 3.12 ± 0.19 h | total protein half-life in vivo [6]: 2.4 ± 0.35 h | total protein half-life in vivo [8]: 7.69 ± 0.61 h | total protein half-life in vivo [9]: 3.911 ± 0.035 h | total protein half-life in vivo [10]: 5.79 ± 0.9 h | total protein half-life in vivo [11]: 4.55 ± 0.18 h | total protein half-life in vivo [12]: 7.81 ± 1.7 h

MKHLTEMVRQHKAGKTNGIYAVCSAHPLVLEAAIRYASANQTPLLIEATSNQVDQFGGYTGMTPADFRGFVCQLADSLNFPQDALILGGDHLGPNRWQNLPAAQAMANADDLIKSYVAAGFKKIHLDCSMSCQDDPIPLTDDIVAERAARLAKVAEETCLEHFGEADLEYVIGTEVPVPGGAHETLSELAVTTPDAARATLEAHRHAFEKQGLNAIWPRIIALVVQPGVEFDHTNVIDYQPAKASALSQMVENYETLIFEAHSTDYQTPQSLRQLVIDHFAILKVGPALTFALREALFSLAAIEEELVPAKACSGLRQVLEDVMLDRPEYWQSHYHGDGNARRLARGYSYSDRVRYYWPDSQIDDAFAHLVRNLADSPIPLPLISQYLPLQYVKVRSGELQPTPRELIINHIQDILAQYHTACEGQ [P0C8K0]
total protein half-life in vivo [6]: 2.63 ± 0.042 h | total protein half-life in vivo [7]: 3.29 h | total protein half-life in vivo [8]: 5 ± 1.3 h

MKSLFKVTLLATTMAVALHAPITFAAEAAKPATAADSKAAFKNDDQKSAYALGASLGRYMENSLKEQEKLGIKLDKDQLIAGVQDAFADKSKLSDQEIEQTLQAFEARVKSSAQAKMEKDAADNEAKGKEYREKFAKEKGVKTSSTGLVYQVVEAGKGEAPKDSDTVVVNYKGTLIDGKEFDNSYTRGEPLSFRLDGVIPGWTEGLKNIKKGGKIKLVIPPELAYGKAGVPGIPPNSTLVFDVELLDVKPAPKADAKPEADAKAADSAKK
total protein half-life in vivo [1]: 6.63 ± 0.44 h | total protein half-life in vivo [2]: 6.6 ± 0.35 h | total protein half-life in vivo [3]: 6.58 ± 0.14 h | total protein half-life in vivo [4]: 6.56 ± 0.067 h | total protein half-life in vivo [5]: 5.9 ± 0.28 h | total protein half-life in vivo [6]: 3.15 ± 0.053 h | total protein half-life in vivo [7]: 6.68 ± 0.15 h | total protein half-life in vivo [8]: 11.5 ± 0.64 h | total protein half-life in vivo [9]: 5.86 ± 0.3 h | total protein half-life in vivo [10]: 14 ± 2.2 h | total protein half-life in vivo [11]: 6.04 ± 0.87 h | total protein half-life in vivo [12]: 14.8 ± 1.6 h

MRFLLGVLMLMISGSALATIDVLQFKDEAQEQQFRQLTEELRCPKCQNNSIADSNSMIATDLRQKVYELMQEGKSKKEIVDYMVARYGNFVTYDPPLTPLTVLLWVLPVVAIGIGGWVIYARSRRRVRVVPEAFPEQSVPEGKRAGYVVYLPGIVVALIVAGVSYYQTGNYQQVKIWQQATAQAPALLDRALDPKADPLNEEEMSRLALGMRTQLQKNPGDIEGWIMLGRVGMALGNASIATDAYATAYRLDPKNSDAALGYAEALTRSSDPNDNRLGGELLRQLVRTDHSNIRVLSMYAFNAFEQQRFGEAVAAWEMMLKLLPANDTRRAVIERSIAQAMQHLSPQESK [P0ABM9]
total protein half-life in vivo [1]: 3.85 ± 0.42 h | total protein half-life in vivo [3]: 3.5 ± 0.5 h | total protein half-life in vivo [5]: 3.32 ± 0.057 h | total protein half-life in vivo [6]: 3.26 ± 0.15 h | total protein half-life in vivo [8]: 9.451 ± 0.016 h | total protein half-life in vivo [9]: 3.8 ± 0.21 h | total protein half-life in vivo [10]: 5.979 ± 0.034 h | total protein half-life in vivo [11]: 3.91 ± 0.59 h | total protein half-life in vivo [12]: 6.58 ± 1.2 h
